Measurements as given in PMC4690985.

Key:
[1] = target: Toyocamycin nitrile hydratase (TNH) α subunit (Streptomyces rimosus) (UniProt B6CWJ3); test: native MS
[2] = target: TNH αβγ trimer (Streptomyces rimosus) (UniProt B6CWJ3); test: native MS

Substance | abundance of the αβ dimer among the SID products (αβγ trimer = 100%) [1] [%] | stoichiometry N [2]
Toyocamycin nitrile hydratase (TNH) β subunit (natural protein) | 32 | –
TNH αβγ trimer (from UniProt B6CWJ3 1-195) (complex) | – | 2
